Assays:
[1] = target: Trypanosoma brucei haptoglobin-haemoglobin receptor, truncated N-terminal ligand-binding domain (residues 36-299) (Trypanosoma brucei brucei) (UniProt Q581F2); assay: SPR
[2] = target: Native (dimeric) human haptoglobin-haemoglobin complex (Hp 1-1 with Hb) (human) (UniProt P00738); assay: SEC-MALS
[3] = target: Native (dimeric) human haptoglobin-haemoglobin complex (Hp 1-1 with Hb) (human) (UniProt P00738); assay: SEC-SAXS

| Substance | Kd [1] [nM] | stoichiometry N (receptors per HpHb) [2] | stoichiometry N (receptors per HpHb) [3] |
| --- | --- | --- | --- |
| HpSPHb complex: serine protease domain of human haptoglobin (148-406) bound to a human haemoglobin alpha-beta dimer (from UniProt P00738 148-406) | 700 |  |  |
| HprSPHb complex: serine protease domain of human haptoglobin-related protein (90-348) bound to human haemoglobin (from UniProt P00739 90-348) | 1700 |  |  |
| Trypanosoma brucei haptoglobin-haemoglobin receptor, truncated N-terminal ligand-binding domain (residues 36-299) (from UniProt Q581F2 36-299) |  | 2 | 2 |
